Biological target: low-density lipoprotein receptor-related protein 1 (mouse (endogenous in bEnd3))
Test: proximity ligation

low-density lipoprotein receptor-related protein 1 (mouse (endogenous in bEnd3)), sequence (Q91ZX7 20-4545): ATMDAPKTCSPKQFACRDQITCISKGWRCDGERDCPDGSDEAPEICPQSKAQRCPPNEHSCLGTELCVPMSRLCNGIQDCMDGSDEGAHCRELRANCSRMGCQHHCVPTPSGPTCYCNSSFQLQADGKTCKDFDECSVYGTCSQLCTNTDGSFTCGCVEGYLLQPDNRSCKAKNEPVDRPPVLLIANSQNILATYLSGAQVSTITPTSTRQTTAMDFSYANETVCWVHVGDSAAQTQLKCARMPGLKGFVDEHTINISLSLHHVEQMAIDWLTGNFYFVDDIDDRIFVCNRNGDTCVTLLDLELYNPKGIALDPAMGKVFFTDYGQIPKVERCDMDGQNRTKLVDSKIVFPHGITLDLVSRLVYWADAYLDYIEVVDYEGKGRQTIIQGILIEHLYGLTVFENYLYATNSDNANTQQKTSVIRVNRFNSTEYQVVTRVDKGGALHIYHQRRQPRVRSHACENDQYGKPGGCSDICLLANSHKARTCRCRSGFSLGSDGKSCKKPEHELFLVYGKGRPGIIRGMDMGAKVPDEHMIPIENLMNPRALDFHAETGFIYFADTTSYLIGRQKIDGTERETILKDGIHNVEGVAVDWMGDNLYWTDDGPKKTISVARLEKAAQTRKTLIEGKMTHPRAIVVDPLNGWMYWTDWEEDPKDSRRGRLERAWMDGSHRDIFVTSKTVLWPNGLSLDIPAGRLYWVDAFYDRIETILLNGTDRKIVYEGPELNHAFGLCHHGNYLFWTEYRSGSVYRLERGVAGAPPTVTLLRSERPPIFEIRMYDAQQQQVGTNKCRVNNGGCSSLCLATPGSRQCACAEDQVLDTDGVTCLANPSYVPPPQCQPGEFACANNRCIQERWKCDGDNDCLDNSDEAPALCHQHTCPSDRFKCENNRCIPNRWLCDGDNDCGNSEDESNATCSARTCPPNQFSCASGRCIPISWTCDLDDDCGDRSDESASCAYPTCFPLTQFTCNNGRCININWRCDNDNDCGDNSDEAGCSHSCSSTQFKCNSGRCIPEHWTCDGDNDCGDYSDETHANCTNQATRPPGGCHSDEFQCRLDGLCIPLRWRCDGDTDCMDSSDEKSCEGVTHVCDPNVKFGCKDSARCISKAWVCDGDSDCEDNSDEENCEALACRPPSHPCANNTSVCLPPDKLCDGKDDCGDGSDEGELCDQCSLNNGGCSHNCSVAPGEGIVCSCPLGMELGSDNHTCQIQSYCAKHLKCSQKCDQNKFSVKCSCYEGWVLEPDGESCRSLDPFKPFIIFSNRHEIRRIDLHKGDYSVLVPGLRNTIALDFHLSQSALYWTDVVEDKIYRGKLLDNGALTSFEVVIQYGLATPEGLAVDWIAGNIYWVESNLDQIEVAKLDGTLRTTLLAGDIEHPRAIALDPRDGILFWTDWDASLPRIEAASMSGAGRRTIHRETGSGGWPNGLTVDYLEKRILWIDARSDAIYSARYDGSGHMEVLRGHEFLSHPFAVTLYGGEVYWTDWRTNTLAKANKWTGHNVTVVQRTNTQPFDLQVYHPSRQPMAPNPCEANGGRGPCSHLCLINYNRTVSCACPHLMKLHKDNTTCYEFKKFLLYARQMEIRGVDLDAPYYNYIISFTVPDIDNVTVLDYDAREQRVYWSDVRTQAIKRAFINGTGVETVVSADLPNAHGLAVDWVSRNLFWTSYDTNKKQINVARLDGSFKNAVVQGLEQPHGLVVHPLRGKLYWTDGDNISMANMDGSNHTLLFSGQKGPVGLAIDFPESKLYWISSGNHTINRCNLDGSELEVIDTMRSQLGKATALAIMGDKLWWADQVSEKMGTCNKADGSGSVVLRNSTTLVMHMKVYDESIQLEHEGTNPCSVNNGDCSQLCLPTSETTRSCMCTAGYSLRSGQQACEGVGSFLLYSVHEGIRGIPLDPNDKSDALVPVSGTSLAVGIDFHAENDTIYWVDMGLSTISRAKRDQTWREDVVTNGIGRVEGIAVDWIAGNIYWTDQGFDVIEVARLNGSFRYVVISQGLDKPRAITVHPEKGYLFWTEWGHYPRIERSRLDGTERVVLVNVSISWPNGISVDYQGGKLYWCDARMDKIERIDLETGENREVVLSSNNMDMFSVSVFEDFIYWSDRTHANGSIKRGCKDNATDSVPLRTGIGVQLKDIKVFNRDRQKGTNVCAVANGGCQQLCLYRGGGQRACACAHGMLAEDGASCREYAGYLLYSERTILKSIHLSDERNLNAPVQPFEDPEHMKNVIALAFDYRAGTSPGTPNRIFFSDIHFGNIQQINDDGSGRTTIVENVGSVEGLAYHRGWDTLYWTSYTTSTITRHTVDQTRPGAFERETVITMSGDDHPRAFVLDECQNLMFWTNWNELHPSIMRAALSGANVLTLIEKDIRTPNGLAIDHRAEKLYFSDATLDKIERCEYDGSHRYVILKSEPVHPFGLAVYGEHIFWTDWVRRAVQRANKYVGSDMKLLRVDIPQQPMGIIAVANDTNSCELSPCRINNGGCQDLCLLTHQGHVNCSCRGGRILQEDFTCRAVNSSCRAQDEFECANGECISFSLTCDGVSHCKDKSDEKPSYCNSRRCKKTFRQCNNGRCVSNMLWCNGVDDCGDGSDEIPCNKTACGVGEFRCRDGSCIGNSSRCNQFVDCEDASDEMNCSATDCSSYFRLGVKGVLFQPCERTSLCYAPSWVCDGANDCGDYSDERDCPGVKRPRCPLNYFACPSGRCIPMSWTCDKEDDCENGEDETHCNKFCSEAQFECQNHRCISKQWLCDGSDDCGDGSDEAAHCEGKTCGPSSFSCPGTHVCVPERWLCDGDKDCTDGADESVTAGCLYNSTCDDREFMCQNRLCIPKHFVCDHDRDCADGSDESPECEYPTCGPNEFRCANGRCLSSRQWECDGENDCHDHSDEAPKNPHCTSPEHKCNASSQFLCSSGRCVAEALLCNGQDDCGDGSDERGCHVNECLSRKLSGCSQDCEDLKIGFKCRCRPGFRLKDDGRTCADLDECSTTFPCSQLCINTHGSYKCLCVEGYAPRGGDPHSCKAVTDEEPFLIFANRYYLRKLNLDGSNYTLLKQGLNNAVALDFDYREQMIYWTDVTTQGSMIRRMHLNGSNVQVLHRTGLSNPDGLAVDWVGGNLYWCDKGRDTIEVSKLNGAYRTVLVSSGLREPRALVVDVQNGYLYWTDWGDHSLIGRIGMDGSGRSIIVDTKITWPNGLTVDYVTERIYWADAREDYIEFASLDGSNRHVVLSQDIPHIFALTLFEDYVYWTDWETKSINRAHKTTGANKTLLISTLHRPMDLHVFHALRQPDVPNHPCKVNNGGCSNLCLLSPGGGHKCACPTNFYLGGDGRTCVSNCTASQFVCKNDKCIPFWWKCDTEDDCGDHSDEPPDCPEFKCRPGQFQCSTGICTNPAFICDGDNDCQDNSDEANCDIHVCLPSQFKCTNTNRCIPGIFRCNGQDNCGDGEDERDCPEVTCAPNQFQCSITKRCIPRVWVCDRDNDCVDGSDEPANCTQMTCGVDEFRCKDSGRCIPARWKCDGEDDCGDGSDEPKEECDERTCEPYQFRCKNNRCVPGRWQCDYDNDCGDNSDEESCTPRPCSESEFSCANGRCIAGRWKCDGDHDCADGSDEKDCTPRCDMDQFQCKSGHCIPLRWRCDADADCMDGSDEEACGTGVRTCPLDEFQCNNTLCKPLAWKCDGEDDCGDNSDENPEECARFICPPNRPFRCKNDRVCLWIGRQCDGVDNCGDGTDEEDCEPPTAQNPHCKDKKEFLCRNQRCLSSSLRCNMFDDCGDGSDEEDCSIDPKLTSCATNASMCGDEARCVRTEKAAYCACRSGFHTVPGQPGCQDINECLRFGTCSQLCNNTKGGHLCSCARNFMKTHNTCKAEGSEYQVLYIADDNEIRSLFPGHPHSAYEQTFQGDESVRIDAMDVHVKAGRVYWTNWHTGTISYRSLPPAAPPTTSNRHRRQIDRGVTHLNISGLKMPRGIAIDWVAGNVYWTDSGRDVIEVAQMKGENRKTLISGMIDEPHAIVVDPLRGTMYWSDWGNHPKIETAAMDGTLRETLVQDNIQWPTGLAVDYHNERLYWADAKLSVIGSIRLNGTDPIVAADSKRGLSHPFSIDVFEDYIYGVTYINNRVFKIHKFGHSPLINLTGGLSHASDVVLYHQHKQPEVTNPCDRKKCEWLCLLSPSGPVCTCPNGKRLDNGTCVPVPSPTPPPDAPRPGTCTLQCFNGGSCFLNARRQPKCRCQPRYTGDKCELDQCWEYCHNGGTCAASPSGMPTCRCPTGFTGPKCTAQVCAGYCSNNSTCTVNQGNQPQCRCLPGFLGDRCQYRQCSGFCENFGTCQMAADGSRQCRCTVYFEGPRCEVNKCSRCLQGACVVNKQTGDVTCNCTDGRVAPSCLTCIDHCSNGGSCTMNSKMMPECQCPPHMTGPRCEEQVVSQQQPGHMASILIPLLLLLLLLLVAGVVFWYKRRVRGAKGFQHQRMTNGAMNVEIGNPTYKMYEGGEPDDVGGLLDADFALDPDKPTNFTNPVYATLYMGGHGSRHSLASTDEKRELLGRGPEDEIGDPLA

Molecule “syndapin-2 (from UniProt Q9WVE8 1-486) (natural protein)” has a PLA dots per cell (dots per cell) of 250.

B1: apolipoprotein E (ligand)
chain: EGEPEVTDQLEWQSNQPWEQALNRFWDYLRWVQTLSDQVQEELQSSQVTQELTALMEDTMTEVKAYKKELEEQLGPVAEETRARLGKEVQAAQARLGADMEDLRNRLGQYRNEVHTMLGQSTEEIRARLSTHLRKMRKRLMRDAEDLQKRLAVYKAGAREGAERGVSAIRERLGPLVEQGRQRTANLGAGAAQPLRDRAQAFGDRIRGRLEEVGNQARDRLEEVREHMEEVRSKMEEQTQQIRLQAEIFQARLKGWFEPIVEDMHRQWANLMEKIQASVATNPIITPVAQENQ
B1 showed a PLA dots per cell (dots per cell) of 80.

— doi:10.1101/2020.07.12.199869
